Test results taken from the supplement of paper PMC11246515.
± gives the standard deviation of the averaged measurements.

Experiment: total protein half-life in vivo (active degradation + dilution); higher = more stable protein
[1] = E. coli NCM3722 delta-clpP delta-lon delta-hslV, growth: N-lim chemostat, doubling time 6 h
[2] = E. coli NCM3722 delta-clpP, growth: N-lim chemostat, doubling time 6 h
[3] = E. coli NCM3722 delta-hslV, growth: N-lim chemostat, doubling time 6 h
[4] = E. coli NCM3722 delta-lon, growth: N-lim chemostat, doubling time 6 h
[5] = E. coli NCM3722 delta-smpB, growth: N-lim chemostat, doubling time 6 h
[6] = wild type E. coli NCM3722, growth: C-lim chemostat, doubling time 3 h
[7] = wild type E. coli NCM3722, growth: C-lim chemostat, doubling time 6 h
[8] = wild type E. coli NCM3722, growth: N-lim chemostat, doubling time 6 h
[9] = wild type E. coli NCM3722, growth: N-lim chemostat, doubling time 12 h
[10] = wild type E. coli NCM3722, growth: P-lim chemostat, doubling time 6 h
[11] = wild type E. coli NCM3722, growth: P-lim chemostat, doubling time 12 h
[12] = wild type E. coli NCM3722, growth: C-lim chemostat, doubling time 12 h

## MDRVLHFVLALAVVAILALLVSSDRKKIRIRYVIQLLVIEVLLAWFFLNSDVGLGFVKGFSEMFEKLLGFANEGTNFVFGSMNDQGLAFFFLKVLCPIVFISALIGILQHIRVLPVIIRAIGFLLSKVNGMGKLESFNAVSSLILGQSENFIAYKDILGKISRNRMYTMAATAMSTVSMSIVGAYMTMLEPKYVVAALVLNMFSTFIVLSLINPYRVDASEENIQMSNLHEGQSFFEMLGEYILAGFKVAIIVAAMLIGFIALIAALNALFATVTGWFGYSISFQGILGYIFYPIAWVMGVPSSEALQVGSIMATKLVSNEFVAMMDLQKIASTLSPRAEGIISVFLVSFANFSSIGIIAGAVKGLNEEQGNVVSRFGLKLVYGSTLVSVLSASIAALVL [P0AFF2]
[1]
  total protein half-life in vivo: 7.07 ± 0.54 h
[2]
  total protein half-life in vivo: 6.45 ± 0.078 h
[3]
  total protein half-life in vivo: 6.09 ± 0.15 h
[4]
  total protein half-life in vivo: 5.82 ± 0.35 h
[5]
  total protein half-life in vivo: 6.04 ± 0.57 h
[6]
  total protein half-life in vivo: 3.61 ± 0.038 h
[7]
  total protein half-life in vivo: 6.32 ± 0.029 h
[8]
  total protein half-life in vivo: 6.36 ± 0.65 h
[9]
  total protein half-life in vivo: 9.54 ± 3.4 h
[10]
  total protein half-life in vivo: 5.57 h
[11]
  total protein half-life in vivo: 13 ± 0.8 h

## MDSIHGHEVLNMMIESGEQYTHASLEAAIKARFGEQARFHTCSAEGMTAGELVAFLAAKGKFIPSKDGFSTDQSKICRH
[7]
  total protein half-life in vivo: 5.53 h

## MDSLNLNKHISGQFNAELESIRTQVMTMGGMVEQQLSDAITAMHNQDSDLAKRVIEGDKNVNMMEVAIDEACVRIIAKRQPTASDLRLVMVISKTIAELERIGDVADKICRTALEKFSQQHQPLLVSLESLGRHTIQMLHDVLDAFARMDIDEAVRIYREDKKVDQEYEGIVRQLMTYMMEDSRTIPSVLTALFCARSIERIGDRCQNICEFIFYYVKGQDFRHVGGDELDKLLAGKDSDK [P0A9K7]
[1]
  total protein half-life in vivo: 4.61 ± 0.4 h
[2]
  total protein half-life in vivo: 4.64 ± 0.5 h
[3]
  total protein half-life in vivo: 4.2 ± 0.34 h
[4]
  total protein half-life in vivo: 4.81 ± 0.26 h
[5]
  total protein half-life in vivo: 4.01 ± 0.1 h
[6]
  total protein half-life in vivo: 2.88 ± 0.12 h
[7]
  total protein half-life in vivo: 5.04 ± 0.29 h
[12]
  total protein half-life in vivo: 9.47 ± 0.65 h
[8]
  total protein half-life in vivo: 4.09 ± 0.23 h
[9]
  total protein half-life in vivo: 6.41 ± 0.26 h
[10]
  total protein half-life in vivo: 5.17 ± 0.13 h
[11]
  total protein half-life in vivo: 10.8 ± 0.029 h

## MDSQRNLLVIALLFVSFMIWQAWEQDKNPQPQAQQTTQTTTTAAGSAADQGVPASGQGKLISVKTDVLDLTINTRGGDVEQALLPAYPKELNSTQPFQLLETSPQFIYQAQSGLTGRDGPDNPANGPRPLYNVEKDAYVLAEGQNELQVPMTYTDAAGNTFTKTFVLKRGDYAVNVNYNVQNAGEKPLEISSFGQLKQSITLPPHLDTGSSNFALHTFRGAAYSTPDEKYEKYKFDTIADNENLNISSKGGWVAMLQQYFATAWIPHNDGTNNFYTANLGNGIAAIGYKSQPVLVQPGQTGAMNSTLWVGPEIQDKMAAVAPHLDLTVDYGWLWFISQPLFKLLKWIHSFVGNWGFSIIIITFIVRGIMYPLTKAQYTSMAKMRMLQPKIQAMRERLGDDKQRISQEMMALYKAEKVNPLGGCFPLLIQMPIFLALYYMLMGSVELRQAPFALWIHDLSAQDPYYILPILMGVTMFFIQKMSPTTVTDPMQQKIMTFMPVIFTVFFLWFPSGLVLYYIVSNLVTIIQQQLIYRGLEKRGLHSREKKKS
[1]
  total protein half-life in vivo: 6.9 ± 1.3 h
[2]
  total protein half-life in vivo: 6.01 ± 0.51 h
[3]
  total protein half-life in vivo: 6.03 ± 0.043 h
[4]
  total protein half-life in vivo: 6.29 ± 0.36 h
[5]
  total protein half-life in vivo: 6.08 ± 0.42 h
[6]
  total protein half-life in vivo: 3.2 ± 0.74 h
[7]
  total protein half-life in vivo: 6.37 ± 1.8 h
[8]
  total protein half-life in vivo: 6.08 ± 0.64 h
[9]
  total protein half-life in vivo: 12.2 ± 0.55 h
[10]
  total protein half-life in vivo: 6.66 ± 0.93 h
[11]
  total protein half-life in vivo: 12.6 ± 0.7 h

## MDTSLAEEVQQTMATLAPNRFFFMSPYRSFTTSGCFARFDEPAVNGDSPDSPFQQKLAALFADAKAQGIKNPVMVGAIPFDPRQPSSLYIPESWQSFSRQEKQASARRFTRSQSLNVVERQAIPEQTTFEQMVARAAALTATPQVDKVVLSRLIDITTDAAIDSGVLLERLIAQNPVSYNFHVPLADGGVLLGASPELLLRKDGERFSSIPLAGSARRQPDEVLDREAGNRLLASEKDRHEHELVTQAMKEVLRERSSELHVPSSPQLITTPTLWHLATPFEGKANSQENALTLACLLHPTPALSGFPHQAATQVIAELEPFDRELFGGIVGWCDSEGNGEWVVTIRCAKLRENQVRLFAGAGIVPASSPLGEWRETGVKLSTMLNVFGLH [P0AEJ2]
[6]
  total protein half-life in vivo: 2.43 h
[7]
  total protein half-life in vivo: 2.54 h

## MDVTAKYELIGLMAYPIRHSLSPEMQNKALEKAGLPFTYMAFEVDNDSFPGAIEGLKALKMRGTGVSMPNKQLACEYVDELTPAAKLVGAINTIVNDDGYLRGYNTDGTGHIRAIKESGFDIKGKTMVLLGAGGASTAIGAQGAIEGLKEIKLFNRRDEFFDKALAFAQRVNENTDCVVTVTDLADQQAFAEALASADILTNGTKVGMKPLENESLVNDISLLHPGLLVTECVYNPHMTKLLQQAQQAGCKTIDGYGMLLWQGAEQFTLWTGKDFPLEYVKQVMGFGA [P0A6D5]
[1]
  total protein half-life in vivo: 4.77 h

## MDWLLDVFATWLYGLKVIAITLAVIMFISGLDDFFIDVVYWVRRIKRKLSVYRRYPRMSYRELYKPDEKPLAIMVPAWNETGVIGNMAELAATTLDYENYHIFVGTYPNDPDTQRDVDEVCARFPNVHKVVCARPGPTSKADCLNNVLDAITQFERSANFAFAGFILHDAEDVISPMELRLFNYLVERKDLIQIPVYPFEREWTHFTSMTYIDEFSELHGKDVPVREALAGQVPSAGVGTCFSRRAVTALLADGDGIAFDVQSLTEDYDIGFRLKEKGMTEIFVRFPVVDEAKEREQRKFLQHARTSNMICVREYFPDTFSTAVRQKSRWIIGIVFQGFKTHKWTSSLTLNYFLWRDRKGAISNFVSFLAMLVMIQLLLLLAYESLWPDAWHFLSIFSGSAWLMTLLWLNFGLMVNRIVQRVIFVTGYYGLTQGLLSVLRLFWGNLINFMANWRALKQVLQHGDPRRVAWDKTTHDFPSVTGDTRSLRPLGQILLENQVITEEQLDTALRNRVEGLRLGGSMLMQGLISAEQLAQALAEQNGVAWESIDAWQIPSSLIAEMPASVALHYAVLPLRLENDELIVGSEDGIDPVSLAALTRKVGRKVRYVIVLRGQIVTGLRHWYARRRGHDPRAMLYNAVQHQWLTEQQAGEIWRQYVPHQFLFAEILTTLGHINRSAINVLLLRHERSSLPLGKFLVTEGVISQETLDRVLTIQRELQVSMQSLLLKAGLNTEQVAQLESENEGE [P0AFA5]
[1]
  total protein half-life in vivo: 4.66 ± 1.7 h
[9]
  total protein half-life in vivo: 9.6 ± 6.5 h

## MDYVCSVVFICQSFDLIINRRVISFKKNSLFIVSDKIRRELPVCPSKLRIVDIDKKTCLSFFIDVNNELPGKFTLDKNGYIAEEEPPLSLVFSLFEGIKIADSHSLWLKERLCISLLAMFKKRESVNSFILTNINTFTCKITGIISFNIERQWHLKDIAELIYTSESLIKKRLRDEGTSFTEILRDTRMRYAKKLITSNSYSINVVAQKCGYNSTSYFICAFKDYYGVTPSHYFEKIIGVTDGINKTID
[1]
  total protein half-life in vivo: 5.39 ± 1.1 h
[2]
  total protein half-life in vivo: 3.62 ± 0.73 h
[3]
  total protein half-life in vivo: 3.65 ± 0.5 h
[5]
  total protein half-life in vivo: 3.18 ± 0.42 h
[6]
  total protein half-life in vivo: 2.27 ± 0.2 h
[7]
  total protein half-life in vivo: 4.11 ± 0.32 h
[12]
  total protein half-life in vivo: 6.14 h
[8]
  total protein half-life in vivo: 2.95 h
[9]
  total protein half-life in vivo: 5.67 ± 0.64 h
[10]
  total protein half-life in vivo: 3.89 ± 0.38 h
[11]
  total protein half-life in vivo: 7.61 ± 2.4 h

## MEFAFYICGLIAILATLRVITHTNPVHALLYLIISLLAISGVFFSLGAYFAGALEIIVYAGAIMVLFVFVVMMLNLGGSEIEQERQWLKPQVWIGPAILSAIMLVVIVYAILGVNDQGIDGTPISAKAVGITLFGPYVLAVELASMLLLAGLVVAFHVGREERAGEVLSNRKDDSAKRKTEEHA [P0AFE0]
[3]
  total protein half-life in vivo: 4.21 h
[5]
  total protein half-life in vivo: 6.02 h
[7]
  total protein half-life in vivo: 6.7 h
[8]
  total protein half-life in vivo: 6.07 h
[9]
  total protein half-life in vivo: 11.5 h
[10]
  total protein half-life in vivo: 6.02 h
[11]
  total protein half-life in vivo: 13.8 ± 2.9 h
